Two molecules from article PMC4742278 (2016) can be followed below.

For assay [1], the target named is T1, EBNA2_(381–389) peptide with an additional Gly-Tyr dipeptide at the C-terminus (NH2-[…]-CONH2) (Epstein-Barr virus, strain B95-8, C-terminal amide (CONH2)). The experiment in a line: ITC. In general terms: Isothermal titration calorimetry measures the heat released or taken up as one component is titrated into another.
Assay [2] concerns the target T1, EBNA2_(381–389) peptide with an …. The experiment in a line: ITC; N fixed to 1.

In general, Kd refers to a measure of binding affinity in units of concentration. Low readings indicate tighter binding, high ones weaker binding.

QTKKKQWCYNCEEEAMAHCCWNTSYCSIKCQQEHWHAEHKRTCRRKR (domain or fragment) [BS69_(MYND) Y532A] had a Kd in assay [1] of 64.5 µM. As for QTKKKQWCYNCEEEAMYHCCWNTSYCSIKCQQEHWHAEHKRTCRAKR (domain or fragment) [BS69_(MYND) R560A], the Kd in assay [2] is about 279 µM.
